According to patent US20070286858A1 (Pfizer, published 2007):
Positions count from the first letter of the chain named. Numbers in names are those of the source. Where “and” joins values, the source holds several entries; their conditions need not be identical. Equal values may be shown once.

B1: humanized XT-M4 hVH-V2.0 / hVL-V2.7 (antibody, human IgG1, V domains shown)
VH: EVQLVESGGGLVQPGGSLRLSCAASGFTFNNYWMTWVRQAPGKGLEWVASIDNSGDNTYYPDSVKDRFTISRDNAKNSLYLQMNSLRAEDTAVYYCARGGDITTGFDYWGQGTLVTVSS
VL: DIQMTQSPSSLSASVGDRVTITCRASQDVGIYVNWYQQKPGKAPKRLIYRATNLADGVPSRFSGSGSGTDFTLTISSLQPEDFATYYCLEFDEHPLTFGGGTKVEIK
B2: humanized XT-M4 hVH-V2.0 / hVL-V2.14 (antibody, human IgG1, V domains shown)
VH: B1 VH
VL: B1 VL with Y36F, G66R
B3: humanized XT-M4 hVH-V1.0 / hVL-V2.7 (antibody, human IgG1, V domains shown)
VH: B1 VH with D52N, A88S
VL: B1 VL
B4: humanized XT-M4 hVH-V2.0 / hVL-V2.12 (antibody, human IgG1, V domains shown)
VH: B1 VH
VL: B1 VL with K45R, G66R
B5: humanized XT-M4 hVH-V2.0 / hVL-V2.11 (antibody, human IgG1, V domains shown)
VH: B1 VH
VL: B1 VL with Y36F, K45R, G66R
B6: humanized XT-M4 hVH-V2.0 / hVL-V2.13 (antibody, human IgG1, V domains shown)
VH: B1 VH
VL: B1 VL with G66R
B7: humanized XT-M4 hVH-V2.0 / hVL-V2.4 (antibody, human IgG1, V domains shown)
VH: B1 VH
VL: B1 VL with R46L, G66R
B8: humanized XT-M4 hVH-V1.0 / hVL-V2.4 (antibody, human IgG1, V domains shown)
VH: B1 VH with D52N, A88S
VL: B1 VL with R46L, G66R
B9: V2.0 (R40, Y46, I48, A71, K73) / v3.0 DPK24 grafted (antibody, V domains shown)
VH: QVQLVQSGAEVKKPGASVKVSCKASGYTFTTYWMHWVRQRPGQGLYWIGYINPSTGYTEYNQKFKDRVTMTADTSISTAYMELSRLRSDDTAVYYCARWAGYTIDYWGQGTLVTVSS
VL: DIVMTQSPDSLAVSLGERATINCKSTKSLLNSDGFTYLDWYQQKPGQPPKLLIYLVSDRFSGVPDRFSGSGSGTDFTLTISSLQAEDVAVYYCFQSNSLPLTFGGGTKVEIK
notes: XT-H2 construct expressed in COS cells; also called XT-H2 hVH V2.0 + hVL V3.0
B10: V2.1 (R40A) / v3.0 (antibody, V domains shown)
VH: B9 VH with R40A
VL: B9 VL
notes: XT-H2 construct expressed in COS cells; also called XT-H2 hVH V2.1 + hVL V3.0
B11: V2.3 (I48M) / v3.0 (antibody, V domains shown)
VH: B9 VH with I48M
VL: B9 VL
notes: XT-H2 construct expressed in COS cells; also called XT-H2 hVH V2.3 + hVL V3.0
B12: V2.2 (Y46E) / v3.0 (antibody, V domains shown)
VH: B9 VH with Y46E
VL: B9 VL
notes: XT-H2 construct expressed in COS cells; also called XT-H2 hVH V2.2 + hVL V3.0
B13: mVH / v2.0 (V2, L4, S48) (antibody, V domains shown)
VH: QVQLQQSGAELAKPGASVKMSCKASGYTFTTYWMHWVKQRPGQGLYWIGYINPSTGYTEYNQKFKDKATLTADKSSSTAYMQLSSLTSEDSAVYYCARWAGYTIDYWGQGTSVTVSS
VL: DVVLTQTPLSLSVTPGQPASISCKSTKSLLNSDGFTYLDWYLQKPGQSPQLLIYLVSDRFSGVPDRFSGSGSGTDFTLKISRVEAEDVGVYYCFQSNSLPLTFGGGTKVEIK
notes: XT-H2 construct expressed in COS cells; also called XT-H2 mVH + hVL V2.0
B14: V2.0 (R40, Y46, I48, A71, K73) / v2.0 (V2, L4, S48) (antibody, V domains shown)
VH: B9 VH
VL: B13 VL
notes: XT-H2 construct expressed in COS cells; also called XT-H2 hVH V2.0 + hVL V2.0
B15: V2.3 (I48M) / mVL (antibody, V domains shown)
VH: B9 VH with I48M
VL: B13 VL with S12P, T14N, P15I, Q17D, P18Q, K79T, V88L, G105S, V109L
notes: XT-H2 construct expressed in COS cells; also called XT-H2 hVH V2.3 + mVL
B16: V2.3 (I48M) / v2.0 (antibody, V domains shown)
VH: B9 VH with I48M
VL: B13 VL
notes: XT-H2 construct expressed in COS cells; also called XT-H2 hVH V2.3 + hVL V2.0
B17: V2.3 (I48M) / v2.1 (antibody, V domains shown)
VH: B9 VH with I48M
VL: B13 VL with V2I, L4M
notes: XT-H2 construct expressed in COS cells; also called XT-H2 hVH V2.3 + hVL V2.1
B18: V2.0 (R40, Y46, I48, A71, K73) / mVL (antibody, V domains shown)
VH: B9 VH
VL: B13 VL with S12P, T14N, P15I, Q17D, P18Q, K79T, V88L, G105S, V109L
notes: XT-H2 construct expressed in COS cells; also called XT-H2 hVH V2.0 + mVL
B19: V2.0 (R40, Y46, I48, A71, K73) / v2.1 (V2I, L4M) (antibody, V domains shown)
VH: B9 VH
VL: B13 VL with V2I, L4M
notes: XT-H2 construct expressed in COS cells; also called XT-H2 hVH V2.0 + hVL V2.1
B20: V2.1 (R40A) / v2.0 (antibody, V domains shown)
VH: B9 VH with R40A
VL: B13 VL
notes: XT-H2 construct expressed in COS cells; also called XT-H2 hVH V2.1 + hVL V2.0
B21: V2.1 (R40A) / v2.1 (antibody, V domains shown)
VH: B9 VH with R40A
VL: B13 VL with V2I, L4M
notes: XT-H2 construct expressed in COS cells; also called XT-H2 hVH V2.1 + hVL V2.1
B22: V2.2 (Y46E) / mVL (antibody, V domains shown)
VH: B9 VH with Y46E
VL: B13 VL with S12P, T14N, P15I, Q17D, P18Q, K79T, V88L, G105S, V109L
notes: XT-H2 construct expressed in COS cells; also called XT-H2 hVH V2.2 + mVL
B23: V2.2 (Y46E) / v2.1 (antibody, V domains shown)
VH: B9 VH with Y46E
VL: B13 VL with V2I, L4M
notes: XT-H2 construct expressed in COS cells; also called XT-H2 hVH V2.2 + hVL V2.1
B24: V2.2 (Y46E) / v2.0 (antibody, V domains shown)
VH: B9 VH with Y46E
VL: B13 VL
notes: XT-H2 construct expressed in COS cells; also called XT-H2 hVH V2.2 + hVL V2.0
B25: V2.1 (R40A) / mVL (antibody, V domains shown)
VH: B9 VH with R40A
VL: B13 VL with S12P, T14N, P15I, Q17D, P18Q, K79T, V88L, G105S, V109L
notes: XT-H2 construct expressed in COS cells; also called XT-H2 hVH V2.1 + mVL
B26: XT-M4 VH-VL ScFv construct (scFv)
scFv: EVQLVESGGGLVQPGRSLKLSCVVSGFTFNNYWMTWIRQTPGKGLEWVASINNSGDNTYYPDSVKDRFTISRDNAKSTLYLQMNSLRSEDTATYYCTRGGDITTGFDYWGQGVMVTVSSDGGGSGGGGSGGGGSSDIQMTQSPSSMSVSLGDTITITCRASQDVGIYVNWFQQKPGKSPRRMIYRATNLADGVPSRFSGSRSGSIYSLTISSLESEDVADYHCLEFDEHPLTFGSGTKVEIK
notes: Flag tag inferred from detection
B27: XT-H2 VH-VL ScFv construct (scFv)
scFv: QVQLQQSGAELAKPGASVKMSCKASGYTFTTYWMHWVKQRPGQGLYWIGYINPSTGYTEYNQKFKDKATLTADKSSSTAYMQLSSLTSEDSAVYYCARWAGYTIDYWGQGTSVTVSSDGGGSGGGGSGGGGSSDVVLTQTPLSLPVNIGDQASISCKSTKSLLNSDGFTYLDWYLQKPGQSPQLLIYLVSDRFSGVPDRFSGSGSGTDFTLTISRVEAEDLGVYYCFQSNSLPLTFGSGTKLEIK
notes: as for B26

These binders were tested against T1, human RAGE-Fc fusion protein (human, UniProt Q15109 23-344) (assay: competition ELISA on coated hRAGE-Fc; competitor 12.5 ng/ml biotinylated rat XT-M4).
T1 construct: also called hRAGE-Fc; huRAGE-Fc; not shown: Fc domain of human IgG
Description: ELISA plates were coated overnight with 1 ug/ml human RAGE-Fc. […] Briefly, plates were coated overnight with 1 ug/ml human RAGE-Fc.

IC50 | Binder
8.5 µg/mL | B1
0.2 µg/mL | B2
4 to 9.5 µg/mL | B3
2.7 µg/mL | B4
0.15 to 1.05 µg/mL and 0.1 to 0.45 µg/mL | B5
1.5 µg/mL | B6
2.9 µg/mL | B7
4.5 to 8.5 µg/mL | B8

These binders were tested against T1, human RAGE-Fc fusion protein (assay: competition ELISA on human RAGE-Fc; labelled competitor not named).

ED50 | Binder
8 nM | B9
5 nM | B10
5 nM | B11
5 nM | B12
7 nM | B13
5 nM | B14
10 nM | B15
4.5 nM | B16
5 nM | B17
8 nM | B18
5 nM | B19
4 nM | B20
7.5 nM | B21
6 nM | B22
5 nM | B23
4 nM | B24
8 nM | B25

What follows are binders tested against T1, human RAGE-Fc fusion protein (assay: ELISA of in vitro translated ScFv on coated human RAGE-Fc, anti-Flag detection).
Description: ELISA plates coated with human RAGE-Fc (5 ug/ml) or BSA (200 ug/ml) in bicarbonate buffer overnight at 4° C., washed with PBS+tween 0.05% and blocked for 1 hour at room temperature with 2% milk powder PBS. Plates were incubated with in vitro translated ScFv for 2 hours at room temp. Plates were blocked and detection was with anti-Flag antibody (1/1000 dilution) followed by rabbit anti-mouse HRP (1/1000 dilution). […] Values for Kd of the ScFv in both formats as determined by BIACORE™ are used to determine the optimum antigen concentrations for selection experiments.

binding result | Binder
binds | B26
binds | B27
